One data set has as its system FGF21 signaling pathway. Put plainly: FGF21 cell-based bioactivity assay, luciferase reporter in HEK293T cells transfected with GAL4DBD-ELK1 and KLB (β-klotho). As to conditions: Table 4, 6 h. An excerpt:
The puromycin resistance gene pac was amplified by PCR and cloned into pcDNA3.1(+) to replace the original G418 resistance gene. The GAL4DBD-ELK1, IRES. and KLB (β-klotho) genes were amplified by PCR and cloned into the pcDNA-Puro plasmid in sequence to construct the plasmid pcDNA-GAL4DBD-ELK1-IRES-KLB-Pero for cell transfection and screening. The constructed recombinant plasmid and the pFR-Luc plasmid (Agilent) were extracted by Omega E.Z.N.A.® Endo-Free Plasmid Midi Kit for future use. The cell transfection process was as follows: HEK293T cells were plated 3×10^5 cells per well in a 6-well plate and cultured overnight.
After washing the cells twice with Opti-MEM medium, 2 ml Opti-MEM medium was added. Cell transfection reagent was prepared according to the following proportion: Lipofectamine 2000 (6 μl ): pFR-Luc (4.6 μg): pcDNA-GAL4DBD-ELK1-IRES-KLB-Pura (1 μg). […]
The cells were digested with pancreatin to prepare a cell suspension (1×10^5 cells/ml, DMEM+5% FBS+1 μg/ml puromycin) after reaching confluence in the dish, followed by plating in a 96-well plate (100 μl per well), and culturing overnight. Samples of gradient concentrations were added and cultured for 6 h before fluorescence detection by the Luciferase Reporter Assay Kit (Lucifersae reporter kit, Ray Biotech, Cat:68-LuciR-S200).
Background: Reporter assays use an easily measured gene product as a stand-in for the process of interest.

The conditions of data set [1]: mouse, in vivo; cited from earlier work.
The conditions of data set [2]: monkey, in vivo; cited from earlier work.

Read-outs that look alike come from different tables or passages of the source.

As a reminder, the EC50 is the concentration at which the effect is half-maximal.

B1: Natural FGF21: natural fibroblast growth factor 21, SEQ ID NO.87 (protein)
chain: HPIPDSSPLLQFGGQVRQRYLYTDDAQQTEAHLEIREDGTVGGAADQSPESLLQLKALKPGVIQILGVKTSRFLCQRPDGALYGSLHFDPEACSFRELLLEDGYNVYQSEAHGLPLHLPGNKSPHRDPAPRGPARFLPLPGLPPALPEPPGILAPQPPDVGSSDPLSMVGPSQGRSPSYAS
modifications: Amino acid sequence of natural FGF21
Molecule B1 showed a concentration giving a half-maximal response (EC50) in the data set with FGF21 signaling pathway of 0.12 nM. Besides, the Serum half-life is 0.5 h in data set [1] and 2 h in data set [2].
